According to patent publication US20170145086A1 (VISTERRA, published 2017):
Where a chain is given by its changes, count along the chain named.

T1: human RANKL (TNFSF11; Adipogen) (human, UniProt O14788 152-317, limits assumed)
T1 sequence (looked up): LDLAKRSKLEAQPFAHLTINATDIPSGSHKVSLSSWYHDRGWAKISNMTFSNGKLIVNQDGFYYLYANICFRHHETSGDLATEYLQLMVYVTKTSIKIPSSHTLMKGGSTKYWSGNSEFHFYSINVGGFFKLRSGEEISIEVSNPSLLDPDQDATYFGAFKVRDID

T2: human FasL (TNFSF6, Adipogen) (human, UniProt P48023 103-281, limits assumed)
T2 sequence (looked up): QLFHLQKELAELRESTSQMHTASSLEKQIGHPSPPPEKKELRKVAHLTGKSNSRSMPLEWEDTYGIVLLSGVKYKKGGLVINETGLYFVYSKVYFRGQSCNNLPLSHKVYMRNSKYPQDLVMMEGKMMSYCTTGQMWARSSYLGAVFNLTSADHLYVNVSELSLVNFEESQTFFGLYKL

T3: HA-GCN4 hAPRIL (amino acid residues 105-250) (human, UniProt O75888 105-250)
T3 construct: Bought (R&D Systems); also called HA-tagged GCN4 human APRIL; HA-GCN4-huAPRIL; not shown: N-terminal HA tag; GCN4 isoleucine zipper oligomerization domain
T3 sequence: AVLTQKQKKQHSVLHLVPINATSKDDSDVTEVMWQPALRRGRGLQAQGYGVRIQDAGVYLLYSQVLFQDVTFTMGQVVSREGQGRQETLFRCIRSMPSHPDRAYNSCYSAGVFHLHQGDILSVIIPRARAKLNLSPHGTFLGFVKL

B1: monoclonal antibody 3732 (antibody, V domains shown)
VH: EIQLQQSGPELVKPGASVKVSCKASGYSFTDDNMYWVKQSHGKSLEWIGYIDPLNGGTGYNQKFKGKATLTVDKSSSTAFLHLNSLTSEDSAVYYCARRDNYATGTMDYWGQGTSVTVSS
VL: DIVMTQSQKFMSTSVGDRVSITCKASKNVGTDVSWYQQKPGKSPKPLIYWASNRFTGVPDRFTGSGSGTDFTLTINNVQSEDLADYFCEQYSSYPLTFGAGTKLELK
notes: mouse-derived
B2: monoclonal antibody 4540 (antibody, V domains shown)
VH: QVQLQQSGPELVKPGASVKISCKASGYTFADYYINWVKQRPGQGLEWIGWIFPGSGSTYYNEKFKGKATLTVDKSSSTAYMLLSSLTSEDSAVYFCARGDSGRAMDYWGQGTSVTVSS
VL: DIQMTQSPSSLSASLGGKVTITCKASQDINKYIAWYQHKPGKGPRLLIHYTSTLQSGIPSRFSGSGSGRDYSFSISNLEPEDNATYYCLQYDNLLTFGAGTKLELK
notes: mouse-derived
B3: monoclonal antibody 3833 (antibody, V domains shown)
VH: QVQLQQSGAELVRPGTSVKMSCKAAGYTFTNYWIGWVKQRPGHGLEWIGDIYPGGIGGGYTKYNEKFKGKATLTADTSSSTAYMQLGSLTSEDSAIYFCSRSETGRAMDYWGQGTSVTVSS
VL: B2 VL with Q55K, S56P, N77D, N83I, L95N, A99G, L105I
notes: mouse-derived
B4: monoclonal antibody 3631 (antibody, V domains shown)
VH: B1 VH with D32Y, M34I, L54S, T58P, K65R, A103G, T104S
VL: B1 VL with K27Q, T63I, N76S, S93I
notes: mouse-derived

Target: human BAFF (TNFSF13B, AB Biosciences) (human, UniProt Q9Y275 134-285, limits assumed)
Test: indirect ELISA, cytokine coated
Procedure: (§1) Selected anti-APRIL antibodies were evaluated for potential cross-reactivity with other members of the TNFa superfamily (TNFSF) family of cytokines, including: human TNFα (TNFSF2; Adipogen), human […] (TNFSF4, Adipogen), human FasL (TNFSF6, Adipogen), human TRAIL (TNFSF10, Adipogen), human RANKL (TNFSF11; Adipogen), human Tweak (TNFSF12; Abcam), human and mouse BAFF (TNFSF13B, AB Biosciences and Adipogen, respectively), and human LIGHT (TNFSF14, Adipogen). These cytokines share variable degree of sequence as well as higher order structural homologies. Among them, BAFF appears to be the most closely related to APRIL, with 29% identity and 53% amino acid sequence similarity.
(§2) Binding was evaluated by an indirect ELISA protocol using similar methods described for evaluation of APRIL binding; cytokines were immobilized to ELISA plate at 50 ng per well and then exposed to a solution of each of the test antibodies at a fixed concentration of 10 μg/ml Anti-human or anti-mouse Ig-HRP polyclonal antibody conjugates (Jackson Laboratories) were used for detection of antibody binding. The results presented in FIG. 36 indicated eleven of the twelve antibodies tested in this assay to specifically bind APRIL with no measurable cross-reactivity with the other TNFSF members substantially above assay background.

| binding result | Binder |
| --- | --- |
| no binding (tested: 10 µg/ml (p-1128)) | B1 |
| no binding (tested: 10 µg/ml (p-1128)) | B2 |
| no binding (tested: 10 µg/ml (p-1128)) | B3 |

Target: human TNFα (TNFSF2; Adipogen) (human, UniProt P01375 85-233, limits assumed)
Sequence (P01375 85-233 limits assumed): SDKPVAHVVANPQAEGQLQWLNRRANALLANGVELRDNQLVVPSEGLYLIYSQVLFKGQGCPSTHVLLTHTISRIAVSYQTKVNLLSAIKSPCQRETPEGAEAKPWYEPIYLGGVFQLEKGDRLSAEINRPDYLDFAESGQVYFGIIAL
Test: indirect ELISA, cytokine coated
Procedure: as §1, §2

| binding result | Binder |
| --- | --- |
| no binding (tested: 10 µg/ml (p-1128)) | B4 |
| no binding (tested: 10 µg/ml (p-1128)) | B1 |
| no binding (tested: 10 µg/ml (p-1128)) | B2 |
| no binding (tested: 10 µg/ml (p-1128)) | B3 |

Target: human TRAIL (TNFSF10, Adipogen) (human, UniProt P50591 95-281, limits assumed)
Sequence (P50591 95-281 limits assumed): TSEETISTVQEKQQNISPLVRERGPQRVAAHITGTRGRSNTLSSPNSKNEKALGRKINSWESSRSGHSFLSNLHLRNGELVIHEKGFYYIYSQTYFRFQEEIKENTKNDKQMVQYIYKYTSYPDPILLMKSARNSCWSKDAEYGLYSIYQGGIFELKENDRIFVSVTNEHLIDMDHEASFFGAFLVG
Test: indirect ELISA, cytokine coated
Procedure: as §1, §2

| binding result | Binder |
| --- | --- |
| no binding (tested: 10 µg/ml (p-1128)) | B4 |
| no binding (tested: 10 µg/ml (p-1128)) | B1 |
| no binding (tested: 10 µg/ml (p-1128)) | B2 |
| no binding (tested: 10 µg/ml (p-1128)) | B3 |

Target: mouse BAFF (TNFSF13B, Adipogen) (mouse, UniProt Q9WU72 127-309, limits assumed)
Sequence (Q9WU72 127-309 limits assumed): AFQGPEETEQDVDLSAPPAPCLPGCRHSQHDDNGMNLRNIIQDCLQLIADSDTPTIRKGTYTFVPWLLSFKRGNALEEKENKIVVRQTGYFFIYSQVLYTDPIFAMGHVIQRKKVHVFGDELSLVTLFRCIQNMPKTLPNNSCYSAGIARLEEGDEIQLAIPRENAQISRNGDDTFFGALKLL
Test: indirect ELISA, cytokine coated
Procedure: as §1, §2

| binding result | Binder |
| --- | --- |
| no binding (tested: 10 µg/ml (p-1128)) | B1 |
| no binding (tested: 10 µg/ml (p-1128)) | B2 |
| no binding (tested: 10 µg/ml (p-1128)) | B3 |

Target: T1, human RANKL (TNFSF11; Adipogen)
Test: indirect ELISA, cytokine coated
Procedure: as §1, §2

| binding result | Binder |
| --- | --- |
| no binding (tested: 10 µg/ml (p-1128)) | B4 |
| no binding (tested: 10 µg/ml (p-1128)) | B1 |
| no binding (tested: 10 µg/ml (p-1128)) | B2 |
| no binding (tested: 10 µg/ml (p-1128)) | B3 |

Target: human LIGHT (TNFSF14, Adipogen) (human, UniProt O43557 89-240, limits assumed)
Sequence (O43557 89-240 limits assumed): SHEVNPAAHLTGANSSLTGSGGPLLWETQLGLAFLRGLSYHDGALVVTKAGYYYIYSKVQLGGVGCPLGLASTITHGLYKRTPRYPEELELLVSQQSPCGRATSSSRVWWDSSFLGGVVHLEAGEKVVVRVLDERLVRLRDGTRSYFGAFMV
Test: indirect ELISA, cytokine coated
Procedure: as §1, §2

| binding result | Binder |
| --- | --- |
| no binding (tested: 10 µg/ml (p-1128)) | B4 |
| no binding (tested: 10 µg/ml (p-1128)) | B1 |
| no binding (tested: 10 µg/ml (p-1128)) | B2 |
| no binding (tested: 10 µg/ml (p-1128)) | B3 |

Target: T2, human FasL (TNFSF6, Adipogen)
Test: indirect ELISA, cytokine coated
Procedure: as §1, §2

| binding result | Binder |
| --- | --- |
| no binding (tested: 10 µg/ml (p-1128)) | B4 |
| no binding (tested: 10 µg/ml (p-1128)) | B1 |
| no binding (tested: 10 µg/ml (p-1128)) | B2 |

Target: T3, HA-GCN4 hAPRIL (amino acid residues …)
Test: blocking ELISA, 4-parameter fit; blocked: human APRIL binding to human TACI-Fc
Procedure: (§3) FIGS. 19A-19B depict the antibody inhibition of APRIL binding to TNFSF receptors TACI (FIG. 19A) and BCMA (FIG. 19B). Assay is based on blocking ELISA using recombinant human APRIL (R&D Systems) and Human TACI-Fc. Inhibition was analyzed by non-linear regression using a four parameter fit.
(§4) Recombinant TACI-Fc or BCMA-Fc was coated on 96 well plates in 0.1 M carbonate-bicarbonate buffer (pH 9.6), overnight at 4° C. Plates were washed three times with 1×PBST (PBS+0.025% Tween 20) followed by blocking with 1% BSA in 1×PBS, 37° C. for 1 hour. All subsequent wash steps were carried out with 1×PBST. To assess antibody blocking, either 15 ng/mL or 50 ng/mL HA-GCN4-huAPRIL was preincubated with varying antibody concentrations ranging from 0.03-30 μg/mL in binding buffer comprised of 1% BSA and 0.025% Tween-20 in 1×PBS. Preincubation was carried out at 30° C. for 1 hour with mixing. Antibody-APRIL premix with 50 ng/mL APRIL or 15 ng/mL APRIL was then added to TACI-Fc coated or BCMA-Fc coated plates, respectively, and incubated for an additional hour at 30° C. HA-tagged APRIL binding to either receptor was quantified using a goat polyclonal anti-HA tag-HRP antibody (Abcam) added at a 1:10000 dilution followed by colorimetric development using 100 μl/well of freshly prepared TMB substrate (KPL) carried out for up to 30 minutes at room temperature before quenching enzymatic reaction by the addition of 1N sulfuric acid. ELISA signal was quantified by absorbance at 450 nm. ELISA data was analyzed by non-linear regression. IC₅₀ values were calculated based on a 4 parameter fit of antibody titration curves. […] Non-blocking antibodies Aprly-1 or Aprly-5 (Enzo Biosciences) were used as negative controls. Mouse specific, blocking antibody aprily-1-1 (Adipogen) was generally used as a positive control in experiments using mouse APRIL (HA-GCN4-mAPRIL).

| IC50 [nM] | Binder |
| --- | --- |
| 0.27 | B4 |
| 1.01 | B2 |
| 2.25 | B3 |

Target: T3, HA-GCN4 hAPRIL (amino acid residues …)
Test: blocking ELISA; blocked: human APRIL binding to human TACI-Fc
Parameters: concentration or dose not given beside the values
Procedure: as §3, §4

| % Inhibition [%] | Binder |
| --- | --- |
| 63 | B4 |
| 65 | B2 |
| 72 | B3 |

Target: T3, HA-GCN4 hAPRIL (amino acid residues …)
Test: blocking ELISA, 4-parameter fit; blocked: human APRIL binding to human BCMA-Fc
Procedure: as §3, §4

| IC50 [nM] | Binder |
| --- | --- |
| 0.48 | B4 |
| 0.22 | B1 |
| 0.66 | B2 |
| 2.7 | B3 |
